Measured values taken from PMC10397247.
Where two headings read alike, the source gives them in different places. Each block holds one binder with its values, some of them ahead of it.

What was measured:
4H687-bN = target: T1, 4H687-bN; experiment: two-hybrid library CCNG1;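 also: natural log of median RNA to DNA barcode read ratio; higher means stronger binding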
T1 chain: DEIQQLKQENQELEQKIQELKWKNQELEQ

4H717-bN = target: T2, 4H717-bN; experiment: two-hybrid library CCNG1;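 also: natural log of median RNA to DNA barcode read ratio; higher means stronger binding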
T2 chain: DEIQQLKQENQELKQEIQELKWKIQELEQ

4H72-bN = target: T3, 4H72-bN; experiment: two-hybrid library CCNG1;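 also: natural log of median RNA to DNA barcode read ratio; higher means stronger binding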
T3 chain: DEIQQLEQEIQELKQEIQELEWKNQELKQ

4H754-bN = target: T4, 4H754-bN; experiment: two-hybrid library CCNG1;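 also: natural log of median RNA to DNA barcode read ratio; higher means stronger binding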
T4 chain: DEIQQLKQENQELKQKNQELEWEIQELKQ

4H797-bN = target: T5, 4H797-bN; experiment: two-hybrid library CCNG1;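 also: natural log of median RNA to DNA barcode read ratio; higher means stronger binding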
T5 chain: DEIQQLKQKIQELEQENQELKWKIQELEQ

4H883-bN = target: T6, 4H883-bN; experiment: two-hybrid library CCNG1;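 also: natural log of median RNA to DNA barcode read ratio; higher means stronger binding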
T6 chain: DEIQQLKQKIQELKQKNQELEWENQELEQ

4H908-bN = target: T7, 4H908-bN; experiment: two-hybrid library CCNG1
T7 chain: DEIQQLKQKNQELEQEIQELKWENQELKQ

4H918-bN = target: T8, 4H918-bN; experiment: two-hybrid library CCNG1
T8 chain: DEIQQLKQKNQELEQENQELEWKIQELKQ

4H953-bN = target: T9, 4H953-bN; experiment: two-hybrid library CCNG1
T9 chain: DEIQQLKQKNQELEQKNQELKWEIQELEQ

4H967-bN = target: T10, 4H967-bN; experiment: two-hybrid library CCNG1
T10 chain: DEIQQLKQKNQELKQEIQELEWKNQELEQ

4H568-bN = target: T11, 4H568-bN; experiment: two-hybrid library CCNG1
T11 chain: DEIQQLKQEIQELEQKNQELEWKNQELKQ

4H607-bN = target: T12, 4H607-bN; experiment: two-hybrid library CCNG1
T12 chain: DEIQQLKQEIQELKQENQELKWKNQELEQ

4H3595-AA = target: T13, 4H3595-AA; experiment: two-hybrid library CCmax
T13 chain: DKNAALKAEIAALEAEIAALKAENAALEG

4H3629-AA = target: T14, 4H3629-AA; experiment: two-hybrid library CCmax; conditions: mean of both orientations
T14 chain: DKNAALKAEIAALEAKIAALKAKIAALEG

4H3782-AA = target: T15, 4H3782-AA; experiment: two-hybrid library CCmax; conditions: mean of both orientations
T15 chain: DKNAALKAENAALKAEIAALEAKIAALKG

4H380-AA = target: T16, 4H380-AA; experiment: two-hybrid library CCmax; conditions: mean of both orientations
T16 chain: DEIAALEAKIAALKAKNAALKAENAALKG

4H3939-AA = target: T17, 4H3939-AA; experiment: two-hybrid library CCmax; conditions: mean of both orientations
T17 chain: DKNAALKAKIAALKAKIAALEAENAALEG

4H3969-AA = target: T18, 4H3969-AA; experiment: two-hybrid library CCmax; conditions: mean of both orientations
T18 chain: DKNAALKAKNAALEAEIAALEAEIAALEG

4H446-AA = target: T19, 4H446-AA; experiment: two-hybrid library CCmax; conditions: mean of both orientations
T19 chain: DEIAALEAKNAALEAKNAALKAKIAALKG

4H464-AA = target: T20, 4H464-AA; experiment: two-hybrid library CCmax; conditions: mean of both orientations
T20 chain: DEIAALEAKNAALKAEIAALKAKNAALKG

4H483-AA = target: T21, 4H483-AA; experiment: two-hybrid library CCmax; conditions: mean of both orientations
T21 chain: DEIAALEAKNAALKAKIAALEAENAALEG

4H63-AA = target: T22, 4H63-AA; experiment: two-hybrid library CCmax; conditions: mean of both orientations
T22 chain: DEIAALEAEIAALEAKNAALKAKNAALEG

4H481-AA = target: T23, 4H481-AA; experiment: two-hybrid library CCmax
T23 chain: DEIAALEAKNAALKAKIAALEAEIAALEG

4H55-AA = target: T24, 4H55-AA; experiment: two-hybrid library CCmax
T24 chain: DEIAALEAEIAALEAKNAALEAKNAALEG

4H662-AA = target: T25, 4H662-AA; experiment: two-hybrid library CCmax; conditions: mean of both orientations
T25 chain: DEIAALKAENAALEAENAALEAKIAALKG

4H32-AA = target: T26, 4H32-AA; experiment: two-hybrid library CCmax
T26 chain: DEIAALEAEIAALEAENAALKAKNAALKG

4H3378-AA = target: T27, 4H3378-AA; experiment: two-hybrid library CCmax
T27 chain: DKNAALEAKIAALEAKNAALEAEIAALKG

4H340-AA = target: T28, 4H340-AA; experiment: two-hybrid library CCmax; conditions: mean of both orientations
T28 chain: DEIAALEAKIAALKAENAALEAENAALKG

4H3413-AA = target: T29, 4H3413-AA; experiment: two-hybrid library CCmax; conditions: mean of both orientations
T29 chain: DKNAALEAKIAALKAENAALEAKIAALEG

4H3588-AA = target: T30, 4H3588-AA; experiment: two-hybrid library CCmax; conditions: mean of both orientations
T30 chain: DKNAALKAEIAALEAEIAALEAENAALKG

4H3606-AA = target: T31, 4H3606-AA; experiment: two-hybrid library CCmax; conditions: mean of both orientations
T31 chain: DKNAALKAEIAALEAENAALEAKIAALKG

4H3631-AA = target: T32, 4H3631-AA; experiment: two-hybrid library CCmax; conditions: mean of both orientations
T32 chain: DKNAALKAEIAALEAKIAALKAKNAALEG

4H3697-AA = target: T33, 4H3697-AA; experiment: two-hybrid library CCmax; conditions: mean of both orientations
T33 chain: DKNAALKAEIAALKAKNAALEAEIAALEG

4H3718-AA = target: T34, 4H3718-AA; experiment: two-hybrid library CCmax; conditions: mean of both orientations
T34 chain: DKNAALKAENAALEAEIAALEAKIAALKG

4H384-AA = target: T35, 4H384-AA; experiment: two-hybrid library CCmax; conditions: mean of both orientations
T35 chain: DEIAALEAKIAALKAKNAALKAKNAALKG

4H3865-AA = target: T36, 4H3865-AA; experiment: two-hybrid library CCmax; conditions: mean of both orientations
T36 chain: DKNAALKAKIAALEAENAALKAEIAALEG

4H697-AA = target: T37, 4H697-AA; experiment: two-hybrid library CCmax; conditions: mean of both orientations
T37 chain: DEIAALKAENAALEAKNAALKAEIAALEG

4H982-AA = target: T38, 4H982-AA; experiment: two-hybrid library CCmax; conditions: mean of both orientations
T38 chain: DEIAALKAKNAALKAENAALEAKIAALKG

APC7099-AA = target: T39, APC7099-AA; experiment: two-hybrid library CCmax
T39 chain: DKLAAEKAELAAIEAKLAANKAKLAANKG

APC8191-AA = target: T40, APC8191-AA; experiment: two-hybrid library CCmax; conditions: mean of both orientations
T40 chain: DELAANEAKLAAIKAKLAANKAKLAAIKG

APC8910-AA = target: T41, APC8910-AA; experiment: two-hybrid library CCmax; conditions: mean of both orientations
T41 chain: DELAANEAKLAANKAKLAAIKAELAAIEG

APC9096-AA = target: T42, APC9096-AA; experiment: two-hybrid library CCmax; conditions: mean of both orientations
T42 chain: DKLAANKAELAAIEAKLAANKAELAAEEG

APC9319-AA = target: T43, APC9319-AA; experiment: two-hybrid library CCmax; conditions: mean of both orientations
T43 chain: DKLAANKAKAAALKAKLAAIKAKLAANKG

APC6088-AA = target: T44, APC6088-AA; experiment: two-hybrid library CCmax
T44 chain: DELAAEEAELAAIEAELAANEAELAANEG

APC7524-AA = target: T45, APC7524-AA; experiment: two-hybrid library CCmax; conditions: mean of both orientations
T45 chain: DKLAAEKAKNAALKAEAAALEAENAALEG

APC8401-AA = target: T46, APC8401-AA; experiment: two-hybrid library CCmax; conditions: mean of both orientations
T46 chain: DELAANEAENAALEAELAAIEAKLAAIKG

APC8516-AA = target: T47, APC8516-AA; experiment: two-hybrid library CCmax; conditions: mean of both orientations
T47 chain: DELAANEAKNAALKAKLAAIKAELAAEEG

APC9141-AA = target: T48, APC9141-AA; experiment: two-hybrid library CCmax; conditions: mean of both orientations
T48 chain: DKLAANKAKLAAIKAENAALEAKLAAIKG

APC9182-AA = target: T49, APC9182-AA; experiment: two-hybrid library CCmax; conditions: mean of both orientations
T49 chain: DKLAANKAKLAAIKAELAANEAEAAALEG

APC9291-AA = target: T50, APC9291-AA; experiment: two-hybrid library CCmax; conditions: mean of both orientations
T50 chain: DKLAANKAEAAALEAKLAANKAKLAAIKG

APC9806-AA = target: T51, APC9806-AA; experiment: two-hybrid library CCmax; conditions: mean of both orientations
T51 chain: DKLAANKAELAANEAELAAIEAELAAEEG

interaction score (4H3595-AA): -0.866
interaction score (4H3629-AA): 0.754
interaction score (4H3782-AA): -1.1
interaction score (4H380-AA): 0.0185
interaction score (4H3939-AA): -0.576
interaction score (4H3969-AA): -1.4
interaction score (4H446-AA): -1.59
interaction score (4H464-AA): 1.2
interaction score (4H483-AA): -1.8
interaction score (4H63-AA): -0.914
B3: 4H3595-AA (peptide)
chain: DKNAALKAEIAALEAEIAALKAENAALEG

interaction score (APC7099-AA): -1.86
interaction score (APC8191-AA): -1.62
interaction score (APC8910-AA): -2.07
interaction score (APC9096-AA): -1.55
interaction score (APC9319-AA): -2.06
B7: APC7099-AA (peptide)
chain: DKLAAEKAELAAIEAKLAANKAKLAANKG

interaction score (4H3378-AA): 1.2
interaction score (4H340-AA): -1.86
interaction score (4H3413-AA): -1.24
interaction score (4H3588-AA): -1.31
interaction score (4H3606-AA): -0.302
interaction score (4H3631-AA): -1.65
interaction score (4H3697-AA): -1.32
interaction score (4H3718-AA): -1.79
interaction score (4H384-AA): -1.9
interaction score (4H3865-AA): -0.877
interaction score (4H697-AA): -2.13
interaction score (4H982-AA): -1.5
B8: 4H3378-AA (peptide)
chain: DKNAALEAKIAALEAKNAALEAEIAALKG

interaction score (APC6088-AA): -1.3
interaction score (APC7524-AA): -1.52
interaction score (APC8401-AA): -1.56
interaction score (APC8516-AA): -2.19
interaction score (APC9141-AA): -1.67
interaction score (APC9182-AA): -1.84
interaction score (APC9291-AA): -1.58
interaction score (APC9806-AA): -1.36
B9: APC6088-AA (peptide)
chain: DELAAEEAELAAIEAELAANEAELAANEG

Further lines, the binder ahead of its results:

B1: 4H687-bN (peptide)
chain: DEIQQLKQENQELEQKIQELKWKNQELEQ
interaction score (4H687-bN): -0.549
interaction score (4H717-bN): 0.114
interaction score (4H72-bN): -1.56
interaction score (4H754-bN): 0.422
interaction score (4H797-bN): 0.169
interaction score (4H883-bN): 0.227
interaction score (4H908-bN): -0.555
interaction score (4H918-bN): -0.686
interaction score (4H953-bN): -1.1
interaction score (4H967-bN): 0.425

B2: 4H568-bN (peptide)
chain: DEIQQLKQEIQELEQKNQELEWKNQELKQ
interaction score (4H568-bN): 0.761
interaction score (4H607-bN): -0.164
interaction score (4H687-bN): 0.312
interaction score (4H717-bN): -0.157
interaction score (4H72-bN): -0.806
interaction score (4H754-bN): 0.0731
interaction score (4H797-bN): 0
interaction score (4H883-bN): 1.1
interaction score (4H908-bN): 1.08
interaction score (4H918-bN): -0.124
interaction score (4H953-bN): -1.93
interaction score (4H967-bN): -0.452

B4: 4H481-AA (peptide)
chain: DEIAALEAKNAALKAKIAALEAEIAALEG
interaction score (4H481-AA): 0.282
interaction score (4H55-AA): -1.31
interaction score (4H662-AA): 1.83

B5: 4H717-bN (peptide)
chain: DEIQQLKQENQELKQEIQELKWKIQELEQ
interaction score (4H717-bN): 1.4
interaction score (4H72-bN): -1.73
interaction score (4H754-bN): -0.997
interaction score (4H797-bN): -1.95
interaction score (4H883-bN): -0.0445
interaction score (4H908-bN): -0.377
interaction score (4H918-bN): -1.09
interaction score (4H953-bN): -1.57
interaction score (4H967-bN): -0.445

B6: 4H32-AA (peptide)
chain: DEIAALEAEIAALEAENAALKAKNAALKG
interaction score (4H32-AA): 0.0438
interaction score (4H3378-AA; mean of both orientations): -1.84
interaction score (4H340-AA): 1.89
interaction score (4H3413-AA): 0.814
interaction score (4H3588-AA): -0.686
interaction score (4H3606-AA): -0.292
interaction score (4H3631-AA): -0.675
interaction score (4H3697-AA): -0.509
interaction score (4H3718-AA): -0.924
interaction score (4H384-AA): 1.2
interaction score (4H3865-AA): 1.4
interaction score (4H697-AA): -1.89
interaction score (4H982-AA): -0.329
